Assay: yeast display, Sf9 membrane polyspecificity reagent, FACS + sequencing; frameworks hold sequencing errors
Outline: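 Nanobodies from a synthetic yeast display library (Saccharomyces cerevisiae BJ5465), induced 36–48 hours with galactose, were stained 1 hour at 4 °C with 10% biotinylated, detergent-solubilized Sf9 membrane reagent, enriched on streptavidin microbeads, then FACS-sorted. Anti-HA (expression) and streptavidin (reagent binding) fluorescence set low and high (top ~1%) gates. Polyreactivity labels come from the gate of origin. Genes were colony-PCR amplified, MiSeq 2 × 250 sequenced and filtered by CDR length.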

Row | Sequence | polyreactivity (PSR sort gate)
1 | QVQLVESGGGLVQAGGSLRLSCAASGSIFTSYAMGWYRQAPGKERELVAAIDWSGGTTYYADSVKGRFTISRDNAKNPVYLQMNSLKPEDTAVYNRAADIYKYTVGSYDYWGQGTQVTVSS | low polyreactivity
2 | QVQLVESGGGLVQAGGSLRLSCAASGSIFTTNAMGWYRQAPGKERELVARIDRAGSTYYADSVKGRFTISRDNAKNTVYLQMNSLKPEDTSVYYCAVEAVLSRPYATKFDYWGQGTEVTVSS | low polyreactivity
3 | QVQLVESGGGLVQAGGSLRLSCAASGSIFTTYAMGWYRQAPGKERELVAVISRRGGSTYYADSVKGRFTISRDNAKNTVYLQMNSLKPEDTAVYYCNAAYVWYRIFVRRDYWGQGTQVTVSS | high polyreactivity
4 | QVQLVESGGGLVQAGGSLRLSCAASGSIFTVNAMGWYRQAPGKERELVATISVTGGSTYADSVKGRFTISRENAKNTVYLQMNSLKPEDTAVYYCAADKTVRWDFDYRGQGTQVTVSS | low polyreactivity
5 | QVQLVESGGGLVQAGGSLRLSCAASGSIFTVYAIGWYRQAPGKEREFVADIDSGGTYYADSVKGRFTISRDNAKNTVYLQMNSLKPEDSAVYYCAALAALDYGQLYLADDDYWGQGTQVTVSS | low polyreactivity
6 | QVQLVESGGGLVQAGGSLRLSCAASGSIFTWNVKGWYRQAPGKERELVAAISSGGSTNYADSVKGRFTISRDNAKNTVYLQMNSLKPEDTAVYYCATYFRVWYRSYDYWGQGTQVTVSS | high polyreactivity
7 | QVQLVESGGGLVQAGGSLRLSCAASGSIFTWYAMGWSRQAPGKERELVAAITRGGSTYADSVKGRFTISRDNANYTVYLQMNSLKPADTAVYYCNAVYGVYDFNYWGQGTQVTVSS | low polyreactivity
8 | QVQLVESGGGLVQAGGSLRLSCAASGSIFTWYAMGWYRQAPGKERELVAAISEDGGSTYYADSVKGRFTISRDNAKNTVYLQMNSLKPEDTAVYYCATPVASVTGYDYWGQGTQVTVSS | low polyreactivity
9 | QVQLVESGGGLVQAGGSLRLSCAASGSIFTWYAMGWYRQAPGKERELVAAITTGGDTYYADSVKGRFTISRDNAKNTVYLQMNSLKPEDTAVYYCAATPTYWYLCSPYDYWGQGTQVTVSS | low polyreactivity
10 | QVQLVESGGGLVQAGGSLRLSCAASGSIFTYNAMGWYRQAPGKERELVAAISRGGGRTYYADSVKGRFTISRDNAKNTVYLQMNSLKPEDTAVYYCAADIYVRQRYPYYYWGQGTQVTVSS | high polyreactivity
11 | QVQLVESGGGLVQAGGSLRLSCAASGSIFTYNAMGWYRQAPGKERELVAAITSSSGSSTYADSVKGRFTISRDNAKNTVYLQMNSLKPEDTAVYYCAAPILSFPSPYVQYDYWGQGTQVTVSS | low polyreactivity
12 | QVQLVESGGGLVQAGGSLRLSCAASGSIFTYNTMGWYRQAPGKERELVAAISSGGRTYYADSVKGRFTISRDNAKNTVYLQMNSLKPEDTAVYYCAARYYFWGQGTQVTVSS | high polyreactivity
13 | QVQLVESGGGLVQAGGSLRLSCAASGSIFTYYAMGWYRQAPGKEREFVAAISRRGGSTYYADSVKGRFTISRDNAKNTVYLQMNSLKPEDTAVYYCAADRWTRTLVKVIGRYYYWGQGTQVTVSS | high polyreactivity
14 | QVQLVESGGGLVQAGGSLRLSCAASGSIFTYYAMGWYRQAPGKERELVAAISLDGGSTYYADSVKGRFTISRDNAKNTVYLQMNSLKPEDTAVYYCAADYRFFPYTYLYDYWGQGTQVTVSS | low polyreactivity
15 | QVQLVESGGGLVQAGGSLRLSCAASGSIFTYYAMGWYRQAPGKERELVAAISRRGTRTYYADSVKGRFTISRDNAKNTVYLQMNSLKPEDTAVYYCAAEYTETGTAKMEYWGQGTQVTVSS | high polyreactivity
16 | QVQLVESGGGLVQAGGSLRLSCAASGSIFTYYAMGWYRQAPGKERELVAAITSTGGSTYYADSVKGRFTISRDNAKNTVYLQMNSQKPEDTAVYYCATDYGYYDYWGQGTQVTVSS | low polyreactivity
17 | QVQLVESGGGLVQAGGSLRLSCAASGSIFTYYVMGWYRQAPGKERELVAAITISGGSTYYADSVKGRFTISRDNAKNTVYLQMNRLNPEDTAVYYCAAEEVYYEADGFLYSYDYWGKGTQVTVSS | high polyreactivity
18 | QVQLVESGGGLVQAGGSLRLSCAASGSIFVANAMGWYRQAPGKERELVAVISSGGGSTSYADSVKGRFTISRDNAKNTVYLQMSSLKPEDTAVYDCTRRRYDAGSTMGYWGQGTQVTVSS | low polyreactivity
19 | QVQLVESGGGLVQAGGSLRLSCAASGSIFVAYAMGWDRQAPGKERELVAAISSSGGTTYYAYSVKGRFTISRDNAKNTVYLQMNSLKPEDTAVYYCAARDYKYYYWGQGTQVTVSS | high polyreactivity
20 | QVQLVESGGGLVQAGGSLRLSCAASGSIFVAYAMGWYRQAPGKERELVAAITAVGSTYYADSVKGRFTISRDNAKNTVYLQMNSLKAEDTAVYYCAKRQLRPTYRYGYWGQGNQVTVSS | low polyreactivity
21 | QVQLVESGGGLVQAGGSLRLSCAASGSIFVDNAMGWYRQAPGKEREMVAAISRRGGSTYYADSVKGRFTISRDNAKNTVYLQMNSLKPEDTAVYYCNKKNIQFYQGASDYWGQGTQVTVSS | high polyreactivity
22 | QVQLVESGGGLVQAGGSLRLSCAASGSIFVDNAMGWYRQAPGKETQLVAAIRSRDTSTYYADSVKGRFSISLDNAKNTVYLQMNSLKPEDTAVYYCAARTSKRVSQYNYWGQGTQVTVSS | high polyreactivity

Row | Sequence | polyreactivity (PSR sort gate)
23 | QVQLVESGGGLVQAGGSLRLSCAASGSIFVFYAMGWYRQAPGKERELVASITSSGGSTYYADSVKGRFTISRDNAKNTVYLQMNSLKPEDTAVYYCAARKYRNPYYYRYYYWGQGTQVTVSS | high polyreactivity
24 | QVQLVESGGGLVQAGGSLRLSCAASGSIFVGNAMGLYRQAPGKERELVAAISSSGGRTFYADSVKGRFTISRDIAKNSVYLQMNSLKPEDTAVYYCAAYLWSYVFNLYEYWGQGTQVTVSS | high polyreactivity
25 | QVQLVESGGGLVQAGGSLRLSCAASGSIFVGNAMGWYRQAPGKERELVAAISSSGGSTYYADSVKGRFTISRDYAKNSVYLQMNSLKPEYTAVYDCAADTYSTSGYYYWGQGTQVTVSS | low polyreactivity
26 | QVQLVESGGGLVQAGGSLRLSCAASGSIFVGYAMGLYRQAPGKERELVAAISASGGRTYYADSVKGRFTISRDNAKNTVYLQMNSLKPEDTAVYYCATDDYWGRGTQVTVSS | high polyreactivity
27 | QVQLVESGGGLVQAGGSLRLSCAASGSIFVGYAMGWYRQAPGKERELVAAISKSGGSTYYADSVKGRYTISRDNAKNTVYLQMNSLKPEDTAVYYCAAYPVRLVYSQHRYQYDYWGQGTQVTVSS | high polyreactivity
28 | QVQLVESGGGLVQAGGSLRLSCAASGSIFVGYAMGWYRQAPGKERELVAAISVRGASTYYADSVKGRFTISRDNAKNTVYLQMNSLKPEDTAVYYCAARGNTPRTRRYGYWGQGTQVTVSS | high polyreactivity
29 | QVQLVESGGGLVQAGGSLRLSCAASGSIFVGYAMGWYRQAPGKERELVASINYSGGTTDYADSVKGRFTISRDNAKNTVYLQMNSLKPEDTAVYYCAKTAVDWSFTKGVDYDYWGQGTQVTVSS | low polyreactivity
30 | QVQLVESGGGLVQAGGSLRLSCAASGSIFVHYAMGWYIQEPGKERELVARISWRGNTYYADSVKGRFTISRDNAKNTVYLQMNSLKPEDTAVYYCAKDVRRSLVNWDVVYPHGYWGQGTQVTVSS | low polyreactivity
31 | QVQLVESGGGLVQAGGSLRLSCAASGSIFVHYAMGWYRQAPGKERELVAAITSSGGRTYYADSVKGRFTISRDNAKNTVYLQMNSLKPEDTAVYYCNAAKYLFRHGFLSAGDMYYWGQGTQVTVSS | high polyreactivity
32 | QVQLVESGGGLVQAGGSLRLSCAASGSIFVHYAMGWYRQAPGKERELVARISWRGNTYYADSVKGRFTISRDNAKNTVYLQMNSLKPEDTAVYYCAAEYFWYYYYLMDYWGQGTQVTVSS | low polyreactivity
33 | QVQLVESGGGLVQAGGSLRLSCAASGSIFVINPMGWYRPAPGKERELVATIRARAGSTYYADSVKGRFTISRDNAKNSVYLQMNSLKPEDTAVYYCAARLKSYRVDYWGQGTQVTVSS | high polyreactivity
34 | QVQLVESGGGLVQAGGSLRLSCAASGSIFVIYAMGWYRQAPGKERELVAAISWNGGSTFYADSVKGRFTISRDNAKNTVYLQMNSLKPDDTAVYDCNTVASYYRWKSYYYWGQGTQVTVSS | high polyreactivity
35 | QVQLVESGGGLVQAGGSLRLSCAASGSIFVKNAMGWYRPAPGKEREFVAAITTSGGSTNYADSVKGRFTISRDNAKNTVYLQMTSLKPEDTAVYYCNTDIFPAAYDYWVQGTQVTVSS | low polyreactivity
36 | QVQLVESGGGLVQAGGSLRLSCAASGSIFVKNAMGWYRQAPGKERELVAVITIRTATTYYADSVKGRFTISRDNAKNTVYLQMNSLKPEVTAVYYCAAAKRQRGYLQREGNYWGQGTQVTVSS | low polyreactivity
37 | QVQLVESGGGLVQAGGSLRLSCAASGSIFVLNAMGWSRQAPGKETELVAAISYSGTGTYYADSVKGRFTISRDNAKNTVYLQMNSLKPEDTAVYDCAADYYYRYRIYDYWGQGTQVTLSS | low polyreactivity
38 | QVQLVESGGGLVQAGGSLRLSCAASGSIFVLYAMGWYRQAPGKERELVAAIDFGGGSTYYADSVKGRFTISRDNAKNTVYLQMNSLKPEYTAVYYCAAELYYTYRWYDYWGQGTQVTVSS | high polyreactivity
39 | QVQLVESGGGLVQAGGSLRLSCAASGSIFVLYAMGWYRQAPGKERELVAAITSGASTNYADSVKGRFTISRDNAKNTVYLQMNSLKPEDTAVYYCNTGSRLDRVDSWGQGTQVTVSS | low polyreactivity
40 | QVQLVESGGGLVQAGGSLRLSCAASGSIFVNYAMGWYRQAPGKERELVAAISTGGGRTFYADSVKGRFTISRDNAKNTVYLQMNSLKPEDTAVYYCNKLGRPEYDYWGQGTQVTVSS | high polyreactivity
41 | QVQLVESGGGLVQAGGSLRLSCAASGSIFVPNDMGWYRQAPGKEREFVAAITESDGSTYNADSVKGRFTISRDNAKNTVYLQMNSLKPEDTAVYYCATDSTGVTIVHFDYWGQGTQVTVSS | low polyreactivity
42 | QVQLVESGGGLVQAGGSLRLSCAASGSIFVPYAMGWTRQAPGKERELVAAIRRSGGRTYYADSVKGRFTISRDNAKNNVYLQMKSLKPEYTAVFYCAARQRYFWYTSNYNYWAQGTQVTVSS | high polyreactivity
43 | QVQLVESGGGLVQAGGSLRLSCAASGSIFVPYAMGWYRQAPGKEREFVAAMYSGGGNTYYADSVKGRFTISRDNAKNTVYLQMNSLKREDTAVYYCAAAYVYSSWSRYDYWGQGTQVTVSS | high polyreactivity
